Test [1] has as its system respective peptides coupled to bovine serum albumin (BSA). Kind of test: Peptide ELISA: anti-peptide titers of sera from vaccinated mice. The class given is in vivo. Particulars: median values (n = 5); Balb/c mice s.c. three times 15 μg net peptide coupled to KLH, Alum; titre = serum dilution at 50% of ODmax. As for the experimental part: (§1) The peptides were conjugated via the heterobifunctional linker GMBS (4-Maleimidobutyric acid N-hydroxysuccinimide ester) to KLH (Keyhole Limpet Hemocyanin).
(§2) 15 μg of the peptides were suspended with aluminum hydroxide (end concentration of aluminum hydroxide was 0.2%). As buffer mannitol/phosphate was used.
(§3) 5 Balb/c mice were subcutaneously immunized. Mice had access to food and water ad libitum and were kept under a 12 h light/dark cycle. Age of mice at the beginning of experiments was usually 8 to 10 weeks.
(§4) Mice were injected three times in 2 week intervals with 15 μg of net peptide coupled to KLH and adsorbed to Alum as adjuvant in a volume of 1 ml in total via the s.c. route.
(§5) Blood was taken approximately 2 weeks after the final injection.
(§6) To determine the immunogenicity of the vaccines, 96-well Nunc-Maxisorb plates were coated with 1 μM of the respective peptides coupled to bovine serum albumin (BSA) in 0.1 M NaHCO3, pH 9.2-9.4. An irrelevant peptide was used as negative control. KLH was included as positive control and coated at a concentration of 1 μg/ml. Unspecific binding was blocked by incubation with blocking buffer (5% BSA in PBS). Appropriate serum dilutions were added to the wells, serially diluted 1:2 fold and incubated for approximately 1 hour at 37° C. On every ELISA plate a standard serum was included as internal control. Bound antibodies were detected by incubation with biotinylated goat anti-mouse IgG, followed by horseradish peroxidase coupled to Streptavidin. As substrate ABTS was added and the optical density (OD) at 405 nm was measured in a Microwell plate-reader. The titres were defined as the dilution of the serum where 50% of the ODmax in the assay are reached.
A general note: In an ELISA, binding on a coated surface is turned into a signal by an enzyme label.

The target in test [2] is T1, CETP activity of human serum (Homo sapiens, UniProt P11597).
T1 construct: Human serum was used as CETP source; from tissue; host or cells: human serum
T1 sequence (P11597 18-493): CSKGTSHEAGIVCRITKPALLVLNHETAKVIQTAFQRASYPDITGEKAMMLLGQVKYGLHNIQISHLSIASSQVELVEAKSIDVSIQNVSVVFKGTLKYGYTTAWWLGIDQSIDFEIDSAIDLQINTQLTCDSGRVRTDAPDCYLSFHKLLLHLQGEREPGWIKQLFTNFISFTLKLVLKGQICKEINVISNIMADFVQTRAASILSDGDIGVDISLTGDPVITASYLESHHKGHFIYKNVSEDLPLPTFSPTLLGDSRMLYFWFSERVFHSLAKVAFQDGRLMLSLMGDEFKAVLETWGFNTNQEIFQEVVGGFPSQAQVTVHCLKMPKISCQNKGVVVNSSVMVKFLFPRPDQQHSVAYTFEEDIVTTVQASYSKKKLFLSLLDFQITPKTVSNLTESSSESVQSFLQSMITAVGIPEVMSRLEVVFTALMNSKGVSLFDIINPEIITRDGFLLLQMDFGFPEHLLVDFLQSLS
Nature of the test: CETP activity inhibition assay (Roar kit) with sera from vaccinated mice. It counts as biochemical. Particulars: n=5 mice per group; human serum as CETP source mixed with same amount of serum from vaccinated mice. The protocol:
as §3, §4, §5
CETP activity was determined with the Roar CETP activity assay kit (RB-CETP; Roar Biomedical) by measuring the transfer of a fluorescently labeled substrate according to the protocol provided by the manufacturer. […] Human serum was used as CETP source and was mixed with the same amount of serum from vaccinated mice together with donor and acceptor particles (components of the CETP activity assay kit).
Mouse sera containing CETP-inhibiting antibodies lead to a decrease of the signal in this assay. Sera from mice injected with irrelevant peptide served as negative control.

The target in test [3] is T2, recombinantly expressed human CETP N-terminally fused to GST (GST-CETP) (Homo sapiens, UniProt P11597).
T2 construct: not only antibodies directed to the peptide itself but also to the mature CETP protein; GST (N); made in house
T2 sequence (P11597 18-493): T1 sequence (P11597 18-493)
Kind of test: Protein ELISA: anti-protein titers of sera from vaccinated mice. The class given is in vivo, Balb/c mice. Particulars: for anti-protein titers: median values (n = 5), Balb/c mice s.c. three times 15 μg net peptide coupled to KLH, Alum, GST-CETP ELISA, titre = serum dilution at 50% of ODmax. The protocol:
as §1, §2, §3, §4, §5, §6
The antibodies induced by the vaccination were tested for their ability to bind to recombinantly expressed human CETP N-terminally fused to GST (“GST-CETP”) using the protocol described under “peptide ELISA”.

No end group written: not given here.

With 8 (TTAWWLGIDQS) [compound 8], in test [1], the anti-peptide titers is given as 89,000. Further, the “no. of mice with antibodies inhibiting CETP activity” value in test [2] was 4 of 5. Further, in test [3], the anti-protein titers is reported as 1,200.

For the substance 6 (ESIQSFLQSMITA) [compound 6], in test [1], the anti-peptide titers is given as 69,000. For the same substance, the anti-protein titers in test [3] came to 0.

Take 22 (FPRPDQQHSV) [compound 22]: in test [1], the anti-peptide titers is recorded as 229,000. For the same substance, the anti-protein titers in test [3] came out at 0.

As for 20 (TTAWWLGI) [compound 20], the anti-peptide titers in test [1] is given as 124,000. Besides, the anti-protein titers in test [3] is given as 300.

On to 18 (TTAWWLGIDQ) [compound 18], for which the anti-peptide titers in test [1] was 216,000. In addition, the “no. of mice with antibodies inhibiting CETP activity” value in test [2] is recorded as 4 of 5. Also, the anti-protein titers in test [3] is 900.

On to 5 (GFNTNQEIFQEVVGGFP) [compound 5], for which the anti-peptide titers in test [1] is given as 100,000. In test [3], the anti-protein titers turned out to be 100.

For 17 (YTTAWWL) [compound 17], the anti-peptide titers in test [1] is recorded as 94,000. Besides, the anti-protein titers in test [3] worked out at 0.

As for 4 (DEFKAVLETWG) [compound 4], the anti-peptide titers in test [1] is 140,000. The anti-protein titers in test [3] is listed as 0.

Consider 12 (WLGIDQS) [compound 12], for which the anti-peptide titers in test [1] is 153,000. For the same substance, the anti-protein titers in test [3] was found to be 0.

As to 9 (TAWWLGIDQS) [compound 9], the anti-peptide titers in test [1] is listed as 173,000. The “no. of mice with antibodies inhibiting CETP activity” value in test [2] is 4 of 5. In addition, the anti-protein titers in test [3] was 2,200.

As for 21 (TAWWLGI) [compound 21], the anti-peptide titers in test [1] was 99,000. In test [3], the anti-protein titers came to 0.

For the substance 10 (AWWLGIDQS) [compound 10], the anti-peptide titers in test [1] was 191,000. Also, in test [2], the “no. of mice with antibodies inhibiting CETP activity” value was 5 of 5. Further, the anti-protein titers in test [3] is 1,700.

Regarding 16 (YTTAWWLG) [compound 16], the anti-peptide titers in test [1] is 74,000. In addition, in test [3], the anti-protein titers turned out to be 0.

For the substance 7 (YGYTTAWWLGIDQSID) [compound 7], the anti-peptide titers in test [1] is on record as 33,000. In addition, the “no. of mice with antibodies inhibiting CETP activity” value in test [2] is listed as 3 of 5. The anti-protein titers in test [3] was determined as 500.

11 (WWLGIDQS) [compound 11]: the anti-peptide titers in test [1] was 330,000. In addition, the “no. of mice with antibodies inhibiting CETP activity” value in test [2] was 5 of 5. In addition, the anti-protein titers in test [3] is reported as 1,100.

As for “C-YTTAWWLGIDQS (CYTTAWWLGIDQS; also: conjugated to KLH carrier) [SEQ ID No. 1, CETP fragment AA101-112, N-terminal cysteine, conjugated to KLH]”, the “formation of antibodies directed to mature CETP protein (in words)” value in test [3] (vaccinated Balb/c mice, protein ELISA) is “leads to the formation of not only antibodies directed to the peptide itself but also to the mature CETP protein”.

For 2 (KAMMLLGQV) [compound 2], the anti-peptide titers in test [1] is 66,000. Also, the anti-protein titers in test [3] is given as 0.

As to 13 (YTTAWWLGIDQ) [compound 13], the anti-peptide titers in test [1] is recorded as 143,000. For the same substance, the “no. of mice with antibodies inhibiting CETP activity” value in test [2] is recorded as 1 of 5. Further, the anti-protein titers in test [3] was 1,200.

For 1 (YTTAWWLGIDQS) [compound 1], the anti-peptide titers in test [1] is reported as 70,000. The “no. of mice with antibodies inhibiting CETP activity” value in test [2] is given as 3 of 5. In addition, the anti-protein titers in test [3] was 800.

As to 3 (LHLQGEREPGWIKQ) [compound 3], in test [1], the anti-peptide titers was 97,000. Further, the anti-protein titers in test [3] is recorded as 50.

Consider 14 (YTTAWWLGID) [compound 14], for which, in test [1], the anti-peptide titers was 630,000. For the same substance, the “no. of mice with antibodies inhibiting CETP activity” value in test [2] was 1 of 5. Besides, in test [3], the anti-protein titers worked out at 600.

Take 15 (YTTAWWLGI) [compound 15]: in test [1], the anti-peptide titers was 111,000. The “no. of mice with antibodies inhibiting CETP activity” value in test [2] is recorded as 0 of 5. Further, in test [3], the anti-protein titers stood at 300.

As to 19 (TTAWWLGID) [compound 19], the anti-peptide titers in test [1] is on record as 114,000. Moreover, in test [2], the “no. of mice with antibodies inhibiting CETP activity” value is given as 3 of 5. In addition, the anti-protein titers in test [3] is on record as 1,300.

These data come from patent publication US9085636B2, “CETP fragments” (AFFIRIS AG, priority 2011, dated 2015).
